Assay results: publication PMC10709618, “Ag nanorod@PEI-Ag nanohybrid as an excellent signal label for sensitive and rapid detection of serum HER2”

Molecular target: HER2 (GST-tagged, human) (human, UniProt P04626 676-1255)
Assay: electrochemical aptasensor (cyclic voltammetry); Ag NR@PEI-Ag nanohybrid label cast after HER2; LOD 10 pg (not a Kd); Aptamer 0.25 uM loaded on Au electrode; HER2 cast and dried under infrared lamp, PBS wash; CV in 0.1 M PBS pH 7, 100 mV/s; temperature not stated
Settings: protein: commercial; tags: GST

B1: HER2 aptamer (ssDNA)
DNA: GGGCCGTCGAACACGAGCATGGTGCGTGGACCTAGGATGACCTGAGTACTGTCC
modifications: 5'-thiol (SH)
- binding result: binds
